The text below walks through data of the nanobody polyreactivity screen of Harvey et al. (2022).

A short description of this data set: yeast display, Sf9 membrane polyspecificity reagent, FACS + sequencing; frameworks hold sequencing errors. The procedure, abridged:
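Nanobodies from a synthetic yeast display library (Saccharomyces cerevisiae BJ5465), induced 36–48 hours with galactose, were stained 1 hour at 4 °C with 10% biotinylated, detergent-solubilized Sf9 membrane reagent, enriched on streptavidin microbeads, then FACS-sorted. Anti-HA (expression) and streptavidin (reagent binding) fluorescence set low and high (top ~1%) gates. Polyreactivity labels come from the gate of origin. Genes were colony-PCR amplified, MiSeq 2 × 250 sequenced and filtered by CDR length.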
Regarding “QVQLVESGGGLVQAGGSLRLSCAASGSTLFWNAMGWYRKAPGKERELVAVISFSGVSTYYADSVKGRFTISRDNAKNTVYLQLNSLKPEDTAVYYCAAGRCLYYYYGYVDKYGYWGQGTQVTVSS”, the “polyreactivity (PSR sort gate)” value is reported as “low polyreactivity”.
As to “QVQLVESGGGLVQAGGSLRLSCAASGSTLGGNAMGWYRQAPGKERELVAAITSSAGSTYYADSVKGRFTISRDNAKNTVYLQMNSLKPEDTAVYYCATSRDYIGYDYWGQGTQVTVSS”, the “polyreactivity (PSR sort gate)” value is on record as “low polyreactivity”.
As for “QVQLVESGGGLVQAGGSLRLSCAASGSTLGRNAMGWDRQAPGKERELVASITRSGGSTYYADSVKGRFTISRDNAKNTVYLQMNSLKPEDTAVYYCAAEVQGQVGEFDYWGQGTQVTVSS”, the entry is “low polyreactivity”; as for “QVQLVESGGGLVQAGGSLRLSCAASGSTLGSNAMGWYRQAPGKERELVAAITWSGGTTYYADSVKGRFTISRDNAKNTVYLQMNSLKPEDTAVYYCATGQSVIYRYEYWGQGTQVSVSS”, “low polyreactivity”; as for “QVQLVESGGGLVQAGGSLRLSCAASGSTLGSNAMGWYRQAPGKERELVAAITWSGGTTYYADSVKGRFTISRDNAKNTVYLQMNSMKPEDSAVYYCNAERGSGVWWKIWGSDPDDYWGQGTQVTVSS”, “low polyreactivity”.
As for “QVQLVESGGGLVQAGGSLRLSCAASGSTLGSNARGWYRQAPGKERALVAAITWSGGTTYYADSVKGRFTISRDNAKNPVYLQMNSLKPEDTAVYYCATGQSVIYRYDYWGQGTQVTVSS”, the entry is “low polyreactivity”; as for “QVQLVESGGGLVQAGGSLRLSCAASGSTLGVYVMGWYRQAPGKERELVAAISRNGGSTYYADSVKGRFTISRDNAKITVYLQMNSLKPEDTAVYYCAARTVGRKAGFDYWGQGTQVTVSS”, “high polyreactivity”; as for “QVQLVESGGGLVQAGGSLRLSCAASGSTLGYYVMGWYRQAPGKERELVAAITGGGSTDYADSVKGRFTISRDNAKNTVYLQMNSLKPEDTAVDYCAAERTRTGQLFCWGPIYEYWGQGTQVTVSS”, “low polyreactivity”.
As for “QVQLVESGGGLVQAGGSLRLSCAASGSTLHEYVMGWYRQAPGKGRELVAAISRRGDSTYYADSVKGRFTISRDNAKNTVYLQMNSLKPEDTAVYYCAARWYWYWSSWDYYSWGQGTQVTVSS”, the entry is “low polyreactivity”; as for “QVQLVESGGGLVQAGGSLRLSCAASGSTLHVYVMGWYRQAPGKERELVAAISYSGGITYYADSVKGRFTISRDNAKNTVYLQMNSLKPEDTAVYYCAARIISYRVRGKSRHDYWGQGTQVTVSS”, “low polyreactivity”; as for “QVQLVESGGGLVQAGGSLRLSCAASGSTLHYNAMGWYRQAPGKERELVARISWSGGSTYYADSVKGRFTISRDTAKNTVYLQMNSLKPEDTAVYYCAAPRYGHYTWLYDYWGQGTQVTVSS”, “low polyreactivity”.
As for “QVQLVESGGGLVQAGGSLRLSCAASGSTLNSYVMGWYRQAPGKERELVATIRSGSSTNYADSVKGRFTISLDNAKNTVYLQMNSLKPVDTAVYYCSRDDRLAGDYWGQGTQVTVSS”, the “polyreactivity (PSR sort gate)” value was “low polyreactivity”.
In the case of “QVQLVESGGGLVQAGGSLRLSCAASGSTLPGNVMGWYRQAPGKERELVAAISKRGASTYYADSVKGRFTISRDNAKYTVYLLMNSLKPEDTAVYYCATRTRGSVFRFDYWGQGTQVTVSS”, the “polyreactivity (PSR sort gate)” value is on record as “high polyreactivity”.
Turning to “QVQLVESGGGLVQAGGSLRLSCAASGSTLPTNAMGWYRQAPGKEREFVAAISDNGGSTYYADSVKGRFTISRDNAKNTVYLQMNSLKPEDTAVYYCAADWDESYSYRRYGHYDYWGQGTQVTVSS”, the “polyreactivity (PSR sort gate)” value is recorded as “low polyreactivity”.
Turning to “QVQLVESGGGLVQAGGSLRLSCAASGSTLRDYVMGWYRQAPGKERELVAAITSRVDDTYYADSVKGRFTISRDNAKNTVYLQMNSLKPEDTAVYYCAKRYGRFYHYDYWGQGTQVTVSS”, the “polyreactivity (PSR sort gate)” value is “low polyreactivity”.
As for “QVQLVESGGGLVQAGGSLRLSCAASGSTLRGNARGCYRQAPGKEREFVAAISSSGGRTYYADSVKGRFTISRDNAKNTVYLQMTSLNPEDTAVYYCAAAGYQYYFSSVPRAYYYWGQGTLVTVSS”, the entry is “high polyreactivity”; as for “QVQLVESGGGLVQAGGSLRLSCAASGSTLRTYAMGWYRQAPGKERELVAAISFSTTSTYYADSVKGRFTISRDNAKNTVYLQMNSLKPEDTAVYYCAAEYWYYWEYEYWGQGTQVTVSS”, “high polyreactivity”.
Next, “QVQLVESGGGLVQAGGSLRLSCAASGSTLRWNTMGWYRQAPGKERQLVARISKSGGSTSYADSVKGRLTISRDNAKNTVYLQMNSLKPEDTAVYYCAKTPSQGYVFSYRWGDYWGQGTQVTVSS”: “high polyreactivity”.
Turning to “QVQLVESGGGLVQAGGSLRLSCAASGSTLSFNAMGWYRQAPGKERELVAGITYSGGSTYYADSVKGRFTISRDNAKNTVYLQMNSLKPEDTAVYYCNKSSGVYYGHLDYWGQGTQVTVSS”, the “polyreactivity (PSR sort gate)” value is on record as “low polyreactivity”.
As for “QVQLVESGGGLVQAGGSLRLSCAASGSTLSGYVMGWYRQAPGKERELVAGISQSGASTYYADSVKGRFTISRDNAKNTVYLQMNSLKPEDTAVYYCAAVARYLLKYRRYGYWGQGTQVTVSS”, the “polyreactivity (PSR sort gate)” value is “high polyreactivity”.
As to “QVQLVESGGGLVQAGGSLRLSCAASGSTLSQYAMGWYRQAPGKERELVAAISGGGRTYYADSVKGRFTISRDNAKNTVYLQMNSLKPEDTAVYYCAKVRLKKGTRDSYDYWGQGTQVTVSS”, the “polyreactivity (PSR sort gate)” value is recorded as “high polyreactivity”.
Take “QVQLVESGGGLVQAGGSLRLSCAASGSTLSRYVMGWSRHAPGKERELVASISWSGTRTYYADSVKGRFTISRDNAKNTVYLQMNSLIPEDTAVYYCNAVSRGGRLYDYWGQGTQVTVSS”: the “polyreactivity (PSR sort gate)” value is on record as “high polyreactivity”.
Next, “QVQLVESGGGLVQAGGSLRLSCAASGSTLSWYAMGWYRQAPGKERELVAAITRGGSTYYADSVKGRFTISRDNAKNTVYLQMNSLKPEDTAVYYCNAGRDGSRFQYRYDYWGQGTQVTVSS”: “low polyreactivity”; “QVQLVESGGGLVQAGGSLRLSCAASGSTLTRHAMGWYRQAPGKERELVAAITSGGRTKYADSVKGRFTISRDNAKYTVYLHMNSLKPEDTAVYYCAKGGPPGQRGYDYWGQGTQVTVSS”: “high polyreactivity”.
Turning to “QVQLVESGGGLVQAGGSLRLSCAASGSTLVDNGMGWYRHAPGKERELVASISSDGSTNYADSVKGRFTISRDNAKYTVYLQMNSLKTEDPAVYYCAADEGTGQASLSSNLSDYWGQGTQVTVSS”, the “polyreactivity (PSR sort gate)” value is “low polyreactivity”.
As to “QVQLVESGGGLVQAGGSLRLSCAASGSTLVGYDMGWYRQAHGKEMELVADITSTGSTNYADSVKGSFTISRDNAKNTVYLQMNSLKPEDTAVYYCAADLYFYIYSYNYWGQGTQVTVSS”, the “polyreactivity (PSR sort gate)” value was “low polyreactivity”.
As for “QVQLVESGGGLVQAGGSLRLSCAASGSTLVIYAMGWSRQAPGKEREFVAAIRWSTGRTYYADSVKGRFTISRDNAKNTVYLQMNSLKPEDTAVYYCNASYWAPNSLPDGFRYDSWGQGTQVTVSS”, the entry is “high polyreactivity”.
As for “QVQLVESGGGLVQAGGSLRLSCAASGSTLVKYAMGWYRQAPGKERELVARITLNGGRTYYADSVKGRFTISRDNAKNTVYLQMNSLKPEDTAVYYCAKSLPHSTSRDYWGQGTQVTVSS”, the entry is “low polyreactivity”; as for “QVQLVESGGGLVQAGGSLRLSCAASGSTLVLNAMGWYRQAPGKERELVAAITISGDTTYYADSVKGRFTISRDNAKNTVYLQMNSLKPEDTAVYYCAAVVSTVDGMEYWGQGTQVTVSS”, “low polyreactivity”.
In the case of “QVQLVESGGGLVQAGGSLRLSCAASGSTLVTNAMGWYRQAPGKERELVAAITFSGGTTYYADSVKGRFTISRDNAKNTFYLQMNSLKPEDTAVYYCAAEIWLEYVGYDYWGQGTQVTVSS”, the “polyreactivity (PSR sort gate)” value is “high polyreactivity”.
With “QVQLVESGGGLVQAGGSLRLSCAASGSTLVTYAMGWYRQAPGKERELVAAISWRGGSTYYADSVKGRFTISRDNAKNTVYLQMNSLKPEDTAVYYCIKLRAYKESETYYYWGQGTQVTVSS”, the “polyreactivity (PSR sort gate)” value was “low polyreactivity”.
As for “QVQLVESGGGLVQAGGSLRLSCAASGSTLVYNDMGWYRQAPGKEREFVAAIRSNDGSTYYADSVKGRFTISRDNAKNTVYLQMNSLKPEDTAVYYCATTQAYRGENYNYWGQGTQVTVSS”, the entry is “low polyreactivity”; as for “QVQLVESGGGLVQAGGSLRLSCAASGSTLWDYAMGWYRQAPGKERELVAAITQDGGSTYYADSVKGRFTISRDNAKNTVYLQMNSLKPEDTAVYYCAAEYWYDGGGYWGQGTQVTVSS”, “low polyreactivity”; as for “QVQLVESGGGLVQAGGSLRLSCAASGSTLYDYTMGWYRQAPGKERELVAAIRVSGARTFYADSVKGRFTISRDNAKNTVYLQMNSLKPEDTAVYYCAAEFGSFVSPYNYYYWGQGTQVTVSS”, “low polyreactivity”.
With “QVQLVESGGGLVQAGGSLRLSCAASGSTLYTYAMGWYRQAPGKERELVADISTGGSTYYADSVKGRFTISRDNAKNTVYLQMNSLKPEDTAVYYCAAESWFDPVDYWGQGTQVTVSS”, the “polyreactivity (PSR sort gate)” value was “low polyreactivity”.
As for “QVQLVESGGGLVQAGGSLRLSCAASGSTLYTYAMGWYRQAPGKERELVATISWSGSSTYYADSVKGRFTISRDNAKNTVYLQMNSLKPEDTAVYYCNKVPGKSGVPPDYDYWGQGTQVTVSS”, the entry is “high polyreactivity”; as for “QVQLVESGGGLVQAGGSLRLSCAASGSTLYYYAMGWSRQAPGKERELVAAISWSGGITYYADSVKGRFTISRDNAKNTVYLQMNSLKPEDTAVYYCAADKYQGYTFYQGYPGGGGYWGQGTQVTVSS”, “low polyreactivity”.
“QVQLVESGGGLVQAGGSLRLSCAASGSTNVVNAMGRYRQPPGKERELVAAITYSGGSTYYADSVKGRFTISRDNAKNTVYLQQNSLKPEDTAVYYCNTTLRDSRQYVDRAPYTRYDYWGQGTQVTVSS”: the “polyreactivity (PSR sort gate)” value is recorded as “low polyreactivity”.
As for “QVQLVESGGGLVQAGGSLRLSCAASGSTRYNAKGWYRQAPGNERELVASIRGNAGSTYYADSVKGRFTISRDNAKNTVYLQMNSLKPEDTAVYYCNARYWYRYGGYKPVGGYYWGQGTQVTVSS”, the entry is “high polyreactivity”; as for “QVQLVESGGGLVQAGGSLRLSCAASGSTRYNAMGWYRQAPGKERELVASIRGNAGSTYYADSVKGRFTISRDNAKNTVYLQMNSLKPEDTAVYYCNARYWYRYGGYKPVGGYYWGQGTQVTVSS”, “high polyreactivity”.
